According to article PMC4024478 (Protein expression and purification, 2014):

Tests used:
Test in all cases: pull-down
[1] = target: PDZ2 domain of PSD-95 (Mus musculus, UniProt Q62108 155-249)
[2] = target: MBP fusion protein containing a C-terminal PDZ2 Tag (Mus musculus, UniProt Q62108 155-249)
[3] = target: HaloTag-PDZ1+PDZ2 fusion protein (PSD-95 PDZ1-2) on HaloLink resin (Mus musculus, UniProt Q62108 61-249)
[4] = target: MBP-GST fusion protein containing an internal PDZ2 Domain Tag (Mus musculus, UniProt Q62108 155-249)
MBP-GST fusion protein containing an internal PDZ2 Domain Tag, sequence (Q62108 155-249): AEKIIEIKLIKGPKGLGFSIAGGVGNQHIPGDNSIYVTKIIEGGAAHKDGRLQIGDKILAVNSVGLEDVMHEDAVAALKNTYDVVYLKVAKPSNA

[5] = target: PDZ2 Domain-HaloTag fusion protein (PSD-95 PDZ2) on HaloLink resin (Mus musculus, UniProt Q62108 155-249)
PDZ2 Domain-HaloTag fusion protein (PSD-95 PDZ2) on HaloLink resin, sequence (Q62108 155-249): as above

[6] = target: MBP fusion protein containing an N-terminal PDZ2 Tag (Mus musculus, UniProt Q62108 155-249)
MBP fusion protein containing an N-terminal PDZ2 Tag, sequence (Q62108 155-249): as above

[7] = target: PDZ3 Domain-HaloTag fusion protein (PSD-95 PDZ3) on HaloLink resin (Mus musculus, UniProt Q62108 302-402)
PDZ3 Domain-HaloTag fusion protein (PSD-95 PDZ3) on HaloLink resin, sequence (Q62108 302-402): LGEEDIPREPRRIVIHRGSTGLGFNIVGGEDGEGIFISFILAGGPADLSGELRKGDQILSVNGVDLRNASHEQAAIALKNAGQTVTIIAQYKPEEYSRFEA

Measured: binding result

PDZ2 domain of PSD-95, sequence (Q62108 155-249): as the sequence (Q62108 155-249) above
MBP fusion protein containing a C-terminal PDZ2 Tag, sequence (Q62108 155-249): as above
HaloTag-PDZ1+PDZ2 fusion protein (PSD-95 PDZ1-2) on HaloLink resin, sequence (Q62108 61-249): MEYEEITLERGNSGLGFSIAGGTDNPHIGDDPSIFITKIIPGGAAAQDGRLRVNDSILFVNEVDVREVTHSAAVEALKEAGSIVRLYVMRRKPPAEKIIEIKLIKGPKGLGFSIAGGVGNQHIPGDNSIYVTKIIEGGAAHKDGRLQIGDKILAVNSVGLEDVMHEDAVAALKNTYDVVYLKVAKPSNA

SIESDV [SIESDV peptide (free GluN2B Peptide Ligand)]
not listed: [7]
binds: all other assays above

YKQTSV [YKQTSV peptide]
binds: [7]
